Experimental data reported in patent publication US20230399641A1.
Where two headings read alike, the source gives them in different places.

Tests used:
[1] = target: full-length human ACE2 mutant AAA/K353del over-expressed on hACE2-KO 293FT cells (human) (UniProt Q9BYF1)
[2] = target: full-length human ACE2 mutant AKA/K353del over-expressed on hACE2-KO 293FT cells (human) (UniProt Q9BYF1)
[3] = target: full-length human ACE2 mutant K353del over-expressed on hACE2-KO 293FT cells (human) (UniProt Q9BYF1)
[4] = target: full-length human ACE2 mutant AAA/K353del over-expressed on hACE2-KO 293FT cells (human) (UniProt Q9BYF1); remark: listed apart in the source
[5] = target: full-length human ACE2 mutant AKA/K353del over-expressed on hACE2-KO 293FT cells (human) (UniProt Q9BYF1); remark: listed apart in the source
[6] = target: full-length human ACE2 mutant K353del over-expressed on hACE2-KO 293FT cells (human) (UniProt Q9BYF1); remark: listed apart in the source
[7] = target: full-length human ACE2 mutant AKA/K353del over-expressed on hACE2-KO 293FT cells (human) (UniProt Q9BYF1); remark: listed apart in the source
[8] = target: full-length human ACE2 mutant AAA/K353del over-expressed on hACE2-KO 293FT cells (human) (UniProt Q9BYF1); remark: listed apart in the source
[9] = target: full-length human ACE2 mutant AKA/K353del over-expressed on hACE2-KO 293FT cells (human) (UniProt Q9BYF1); remark: listed apart in the source

Question: How did the % cells stained positive [1] turn out when “receptor binding domain (RBD) of B.1.351 SARS-CoV-2 spike (residues 319-541) (from UniProt P0DTC2 319-541) (ligand)” was run?
Answer: Its % cells stained positive is 3.5%.

Question: What about the % cells stained positive [2] of the same substance?
Answer: Its % cells stained positive is 4%.

Question: And the % cells stained positive [3]?
Answer: The % cells stained positive was 3.5%.

Question: And the % of cells in the PE-positive (RBD-bound) gate (No hACE2)?
Answer: The % of cells in the PE-positive (RBD-bound) gate was 0.41%.

Question: And the % of cells in the PE-positive (RBD-bound) gate [4]?
Answer: Its % of cells in the PE-positive (RBD-bound) gate is 3.76%.

Question: What about the % of cells in the PE-positive (RBD-bound) gate [5] of the same substance?
Answer: The % of cells in the PE-positive (RBD-bound) gate was 3.48%.

Question: What about the % of cells in the PE-positive (RBD-bound) gate [6] of the same substance?
Answer: Its % of cells in the PE-positive (RBD-bound) gate is 5.07%.

Question: “receptor binding domain (RBD) of wildtype SARS-CoV-2 spike (residues 319-541) (from UniProt P0DTC2 319-541) (ligand)” was tested. Which % cells stained positive [3] did it give?
Answer: The % cells stained positive was 1.8%.

Question: What about the % of cells in the PE-positive (RBD-bound) gate [7] of the same substance?
Answer: Its % of cells in the PE-positive (RBD-bound) gate is 0.56%.

Question: With “receptor binding domain (RBD) of B.1.1.7 SARS-CoV-2 spike (residues 319-541) (from UniProt P0DTC2 319-541) (ligand)” as the substance, how does the % cells stained positive [1] read?
Answer: Its % cells stained positive is 1.6%.

Question: And the % cells stained positive [2]?
Answer: Its % cells stained positive is 1.6%.

Question: And the % cells stained positive [3]?
Answer: Its % cells stained positive is 1.4%.

Question: With “receptor binding domain (RBD) of P.1 SARS-CoV-2 spike (residues 319-541) (from UniProt P0DTC2 319-541) (ligand)” as the substance, how does the % cells stained positive [1] read?
Answer: The % cells stained positive was 2.6%.

Question: And the % cells stained positive [2]?
Answer: Its % cells stained positive is 2.9%.

Question: And the % cells stained positive [3]?
Answer: Its % cells stained positive is 2.3%.

Question: What about the % of cells in the PE-positive (RBD-bound) gate [8] of the same substance?
Answer: Its % of cells in the PE-positive (RBD-bound) gate is 2.03%.

Question: And the % of cells in the PE-positive (RBD-bound) gate [9]?
Answer: Its % of cells in the PE-positive (RBD-bound) gate is 1.82%.
